Data: article PMC4509860 (Nature chemical biology, 2015)
No end group written: not given here. *: point of attachment. FITC = O=C1OC2(c3ccc(O)cc3Oc3cc(O)ccc32)c2ccc(NC(=S)*)cc21; Ahx = NCCCCCC(=O)O

B2: FITC-labeled TbtA leader peptide (peptide)
chain: SRRGSMLNLSDLPMDVFEMADSGMEVESLTAGHGMPEVGA
modifications: not fully specified (N-terminus); also: FITC label

Columns and labels:
Assay in all cases: fluorescence polarisation
[1] = biological target: B2
[2] = biological target: CurC wild-type (Corynebacterium urealyticum DSM 7109)
[3] = biological target: TbtF/G (Thermobispora bispora)
[4] = biological target: TbtF D19A (Thermobispora bispora)
[5] = biological target: TbtF L24A (Thermobispora bispora)
[6] = biological target: TbtF V30A (Thermobispora bispora)
[7] = biological target: TbtF F68A (Thermobispora bispora)
[8] = biological target: TbtF R71A (Thermobispora bispora)
[9] = biological target: TbtF Q74A (Thermobispora bispora)
[10] = biological target: FITC-labeled StmA leader peptide (Streptomonospora alba, N-terminal FITC-Ahx (fluorescein isothiocyanate with an amino hexyl linker))
[11] = biological target: HcaF wild-type (Bacillus sp. Al Hakam)
[12] = biological target: HcaF D21A (Bacillus sp. Al Hakam)
[13] = biological target: HcaF F35A (Bacillus sp. Al Hakam)

B1: TbtG wild-type (enzyme)
chain: MSDALAAAIIGAGLLADELAAAFRPYGEVIRLDEVERAETEAHRLRALVMACDGWDTSIYRETRERCRRLGIPWLPVRTEHGIAVIGPLERPGEPGCAHCFELRRERARPDAAAYRAILNHHGPELAKRPSPYLDELAAATIAALGVRMIDQGSGCHVWYVRLNGLTVERHAFLPEPLCPECGSLPMDDRDSAVIVLRSQPKRAPDDYRTRDIVDELDALVADYVDGESGLIRPLVRDTQGGLVIAGAMLPLRFAGGSEPGVGRTRGYRTSEVTAILEALERWGGVEPGGKRTVIRAAFRDIAADALDPRTLGVHSPEAYAAEDFPFRPFTEDEETEWVWGYSFARRSPILVPETVAYYYVHRDRPRQERPFLYEISNGCALGSGMEEAILYGILEVVERDAFLMTWYGRLGVPRIDLDSAKNRMVPLQAAAISAETGYRIEVYDTTMEHGIPSVWALAIRGGEEPTAAPRPRMVCAAAAHLDPEQAVLSALSELGPLLADLLRRYPDEAERARRMVDDPGLVTTMHDHSTLYGADEAFGRLEFLTGTASTRDLAAMRESTVAFRSADLRDDLLEVIGRILAEGMDVIVVDQTTPEHRVHGFTCVKVLIPGMIPMTFGHRNRRLDGLTRPLVIPYRLGYRPAPLTPEALNPHPHPFP
Kd [1]: > 10000 nM

{FITC-Ahx}-GMSTLISKLPPAVSTDSSKIVSEVQAFEPT [FITC-labeled CurA leader]
Kd [2]: 7000 nM

B2
Kd [3]: 66 nM | Kd [4]: 57 nM | Kd [5]: 65 nM | Kd [6]: 210 nM | Kd [7]: 7700 nM | Kd [8]: 190 nM | Kd [9]: 49 nM

B3: StmE L73A (natural protein)
chain: MRPNVQIVSRDGDNFVLNLRNGEYWHLNSSAYTMLTRIADGETVDEVARDISAATSAPEQTVRDDLTEAVDQLRKAKLVEVRHS
Kd [10]: > 10000 nM

SGSMNQFQQELQSLNLNDYQTGNVVYWDPQQSQYPYYYIQDDAR (not fully specified (N-terminus); also: FITC label) [FITC-labeled HcaA leader peptide]
Kd [11]: 89 nM | Kd [12]: 130 nM | Kd [13]: 1700 nM

B4: TbtF wild-type (natural protein)
chain: MIPARPVLTPGVRYAPTSDGVAFLTRDGIVSITGVSIHRWIDRIAPHLTGERSVAELTDGLAPERRAFVLRLLQALADRGLIIDAAGGREPRLERGTACALHVTETCGPYRESLPKLARSLADALTRAGLDVRLASASEPCDPERCHALVHLTAADEVGLAAAERLDRLSERWGVPIAHVVVWGGEIWRTEAGTVGEDGLPLAAGWRRLTALRPDTEERVPISPTAAVVVAGQVAADVRDRLTTATRAGRRPRLHVVEPARLTCRAHHFIPHFHTMPLTGDAPLAEELTEEEFSRRAAALMDDRTGVFTEIAEGDFGQLPLHVAVTTVADPVGLLGPAGDRPRVIGVGPDFATARYRTARAAIALYGLLAVDPRRLVDADGEPLAGPRTSAAELEDLLGRIRAGGLPAFVRAEDVRGGPPRLLPASSVFPFATARALLAGTVPTGTAVGYSEEGALRAALLDHCRERTLADLASRRVARLTPDTAPSDPVTARYLAFLRAIGLPFDVLDATGPLGVPVYVGVLDGRVVAAEAGASPGEAFRSVLEGILRGLQGIPAARSLPDTLPPVLPEAMAVPDGSPLSAEALAAALARAGLSVSVVRLDHDRRVHALIPHCVRVMVTGEESAHV
Kd [1]: 66 nM

B5: TbtF R79A (natural protein)
chain: MIPARPVLTPGVRYAPTSDGVAFLTRDGIVSITGVSIHRWIDRIAPHLTGERSVAELTDGLAPERRAFVLRLLQALADAGLIIDAAGGREPRLERGTACALHVTETCGPYRESLPKLARSLADALTRAGLDVRLASASEPCDPERCHALVHLTAADEVGLAAAERLDRLSERWGVPIAHVVVWGGEIWRTEAGTVGEDGLPLAAGWRRLTALRPDTEERVPISPTAAVVVAGQVAADVRDRLTTATRAGRRPRLHVVEPARLTCRAHHFIPHFHTMPLTGDAPLAEELTEEEFSRRAAALMDDRTGVFTEIAEGDFGQLPLHVAVTTVADPVGLLGPAGDRPRVIGVGPDFATARYRTARAAIALYGLLAVDPRRLVDADGEPLAGPRTSAAELEDLLGRIRAGGLPAFVRAEDVRGGPPRLLPASSVFPFATARALLAGTVPTGTAVGYSEEGALRAALLDHCRERTLADLASRRVARLTPDTAPSDPVTARYLAFLRAIGLPFDVLDATGPLGVPVYVGVLDGRVVAAEAGASPGEAFRSVLEGILRGLQGIPAARSLPDTLPPVLPEAMAVPDGSPLSAEALAAALARAGLSVSVVRLDHDRRVHALIPHCVRVMVTGEESAHV
Kd [1]: 79 nM
